Results from paper PMC9615034.
Values joined by “and” are separate entries in the source; they are usually repeats but may differ in a detail not shown here. Equal entries are not always repeated. Where two headings read alike, the source gives them in different places.

Assays:
[1] = molecular target: myeloperoxidase (Homo sapiens) (UniProt P05164); conditions: cited from earlier work
[2] = molecular target: Myeloperoxidase (native) (Homo sapiens) (UniProt P05164); assay: SPR; conditions: cited from earlier work
[3] = molecular target: myeloperoxidase (Homo sapiens) (UniProt P05164); assay: SPR; conditions: cited from earlier work
[4] = molecular target: myeloperoxidase (Homo sapiens) (UniProt P05164); conditions: cited from earlier work; remark: listed apart in the source
[5] = molecular target: mature dimeric human leukocyte myeloperoxidase (human) (UniProt P05164)
[6] = molecular target: biotinylated native human leukocyte myeloperoxidase (human) (UniProt P05164); assay: SPR; Biacore T200; biotinylated native MPO reversibly immobilised on a CAP chip (Biotin CAPture kit) to 500 RU; SPIN variants injected, 2-64 nM (legend: 32-2 nM), single cycle kinetics; RT; PBS, 0.05% Tween 20, 0.1% BSA; two-state model for SPIN-aureus, 1:1 model for SPIN-truncated
[7] = molecular target: mature dimeric human leukocyte myeloperoxidase (human) (UniProt P05164); remark: listed apart in the source
[8] = molecular target: mature dimeric human leukocyte myeloperoxidase (human) (UniProt P05164); assay: ITC; 10 μM MPO in the cell, 150 μM SPIN variant as titrant, 19 injections of 3 μl; 50 mM phosphate buffer pH 7.4 or pH 5; one-site binding model

For “SPIN-truncated C-terminal domain (from UniProt A0A0H3K703)”, the Kd [1] is listed as 10 nM.

For “SPIN-truncated CTD (from UniProt A0A0H3K703)”, the Kd [2] is listed as 29.8 nM and the Kd [3] is listed as 35.1 nM.

In the case of SPIN-aureus (from UniProt A0A0H3K703), the Kd [2] is listed as 15.9 nM and 9.3 nM, the Kd [3] is listed as 11.8 nM and the Kd [4] is listed as 10 nM.

B1: SPIN-aureus (Staphylococcal Peroxidase Inhibitor from Staphylococcus aureus) (natural protein)
chain: SQNGLVLHDDANFLEHELSYIDVLLDKNADQATKDNLRSYFADKGLHSIKDIINKAKQDGFDVSKYEHVK
For B1, the shift of the Tm of MPO by DSC, MPO with SPIN-aureus against MPO alone, pH 5 [5] was 5 °C, the shift of the Tm of MPO by DSC, MPO with SPIN-aureus against MPO alone, pH 7.4 [5] was 1.5 °C and the Kd [6] was 0.005 nM. The koff1 (two-state model, first step) [6] was 0.005 s⁻¹, the koff2 (two-state model, second step) [6] was 3.5e-06 s⁻¹ and the kon1 (two-state model, first step) [6] was 590000 M⁻¹ s⁻¹. The half maximal inhibition time IT50 of the bromination activity of MPO, first phase (incubation 0-5 min, ∼80% total inhibition) [7] was 2.4 s, the half maximal inhibition time IT50 of the bromination activity of MPO, second phase (incubation 5-120 min) [7] was 24 min and the inhibition of the bromination activity of MPO (MCD assay, pH 5) after preincubation with SPIN-aureus for 0 to 120 min [7] was 99.5%.

B2: SPIN-truncated (domain or fragment)
chain: LEHELSYIDVLLDKNADQATKDNLRSYFADKGLHSIKDIINKAKQDGFDVSKYEHVK
With B2 the Kd [6] was 21 nM, the koff [6] was 0.016 s⁻¹ and the kon [6] was 110000 M⁻¹ s⁻¹. It also gave a Kd [8] of 5.9 nM and a dH [8] of -17.4 kcal/mol.
